# Experimental data taken from the DeepSol protein solubility set.
# Experiment: soluble on expression in E. coli; label from the status in PepcDB or PDB records
row,Sequence,soluble on expression in E. coli
1,MGSDKIHHHHHHMEIKQLKEGLEGKVDFSLEYLREKPRQRAHMVASLLDDFFQPLSQHVLLEERISIMIRRGYVSRNLQDGSLNQHLQNGYERVMSGSLQSYKFRNVLTTATCLSLIGCSGSGKSSTLDRILATYPQVIYHEKHNFFQLSYLKIECPNNGSQQSLCLNFFREVDKRLGTKYESDYGGKRHGVPTLLALMSQVANQRAIGVLVIDEIQRLKIRKAVGREQMLEFFVELVNTVGIPVILVGTPKARPLFEIELQSARRTTGIGSLYWQPMPQYPDNPAERSEWEAFTNKLWRYQWLTRRDEVLTDEIRDCWYELSQGVLDIVVKLFVLAQLRAIASKLERITVKVLRSVYETELKPVHPMLHAIRRGNPNLIAKYSDLRIEDIDKRLLTLHQKIQALPEEPELPFSNNEQAMRLYNLLVQMDCRSDLLIPLVEKIFIERPKLTLRNMMPIVLEWYENGKEQPTNAPKPAKAALVKRTDWNTLESDDLRFIYSQVGKSESIYEALKDNGLVLDLKKVN,not soluble
2,MAHHHHHHMNKDTICAWCFDVLKYELKNEKFDKVPPLIQSLHNDGFKIPFFVKWMKLNDVKDMGSYNYDAYELNGCIGCLGETDIMELRYYALESSLNDTRFYPITLKDFPFLIVTITYLFNFEKCAHVYDWVIGKHGIKISFVANKRRYSSTFLPEVASQHNFDHQTTVKKLIRKANYRGEINDELLENIEVERYEGVSCSLTHVDYERV,not soluble
3,MQTVNNIISSVSTVESKAYRDAMSHYAGAVQIVTTAGAAGRRGLTLTAACSVSDNPPTILICLQKIHEENRIFIENGVFAINTLAGPHQQLADAFSGRIGLTQDERFELAAWEILATGAPVLKGALAAFDCRVVSVQDHSTHHVLFGEVVGLSSHAEEEALIYLNRRYHKLEL,soluble
4,MYDTPIFRSEFKVISHELIHALPKVILGESGDAAYMQSRVQQLADDHVAYFECTVPHEDIERAISVAEQAPFTVGILERIDDSSHYTDRSRTPVVVGFSTQSADVAAILRENYVPFEFDGSVADQVRVGASRIIHGIGLFEDFRFEDDDIVPGRLSAWVRDRDYPVLVEPFADLENGEVAELADHPLPLMSKLGYRTASSILSTDRLLELTEYLELQIEDLFELTRDAVAVSLLPQPLRVQLWEELVFPFFEQLGEDFADHSTTDDAESTTELRSEREHAGHAHTDHHGGAAGLEGVDPQFLDEMGIEFDDLDL,not soluble
5,GPGSMHLSELCRDSNIDVIIARLRQVAPLEPAPAFSLSEGAADDDTTPATGHSDFHGLWSYQDNDGRTAFHWAIALKNFDLARKLMQAPYNSPVLTEDEEWSTPFATACSVGAPLDLLREILDRSVVELAAHMKQKETQQNPTSEEQNSSSAAVTEPAEGSSDGKPTKFLSDMPGILQPVDGTPASISAVLVDAEDATGQTPLLLAVGRGHLSIVRFLLENGANLMHQNRRGQSCLHRAVNRGNMELVEFLVSTSENNAKSKAVHRVWMDLRDKHGDSALFYASMDNNEEIGRYLLRHGADRELRNADGKAFWEV,soluble
6,MSSLDNAPLLELDVQEWVNHEGLSNEDLRGKVVVVEVFQMLCPGCVNHGVPQAQKIHRMIDESQVQVIGLHSVFEHHDVMTPEALKVFIDEFGIKFPVAVDMPREGQRIPSTMKKYRLEGTPSIILADRKGRIRQVQFGQVDDFVLGLLLGSLLSETDET,soluble
7,MGSDKIHHHHHHMSDCQAKPETNYLSTSSGKYLTAFQRKLLLQNLQKSLVESYRQRIEIMLLADEGKTQRSICQTLGCCAATARHWTHIARSGMAHQWQDCPIGRPKAVNDQYLERLKELVNSSPRAHGYAFRRWTANWLGKHLAKEFGIEVSDRHIKRLLKQMGLSTLPKPSNVEQNSTEQVQGSKILICDLQSAGIPDDSEFLPINFAKLGKHLDIHGAKYICSVAYSATVQQYSGSFSFYRGISTLSSTS,not soluble
8,MKLGVIAAMDLELQKLLEYFPPQRKIQLAKNTFYIYEQKTSQVIMVCAGQGKTNATLYSQILIDSFQIEQLINIGICGCLNEKLQLFEMVLGEEYCHYDIRERQSINKFPYQLYYKGDKGMLAELQHLDEKIKCVRFGTGEGFVCDTTEKRNLIEQFSIDCVDMESAAIAQCCFLNDCAFVSIRIICDRADANAVKVTEDTQTQAMEKVFELVCAYIN,not soluble
9,MASATLPRFDLMGWDKKDIADPYPVYRRYREAAPVHRTASGPGKPDTYYVFTYDDVVRVLSNRRLGRNARVASGDTDTAPVPIPTEHRALRTVVENWLVFLDPPHHTELRSLLTTEFSPSIVTGLRPRIAELASALLDRLRAQRRPDLVEGFAAPLPILVISALLGIPEEDHTWLRANAVALQEASTTRARDGRGYARAEAASQEFTRYFRREVDRRGGDDRDDLLTLLVRARDTGSPLSVDGIVGTCVHLLTAGHETTTNFLAKAVLTLRAHRDVLDELRTTPESTPAAVEELMRYDPPVQAVTRWAYEDIRLGDHDIPRGSRVVALLGSANRDPARFPDPDVLDVHRAAERQVGFGLGIHYCLGATLARAEAEIGLRALLDGIPALGRGAHEVEYADDMVFHGPTRLLLDLPDAALEHHHHHH,soluble
10,MSNSEPSTSTPSGKTKKRGKKCETSMGKSKKSKNLPRFVKIQPIFSSEKIKETVCEQGIEECKRMLKGHFNAIKDDYDIRVKDELDTDIKDWLKDASSSVNEYRRRLQENLGEGRTIAKFSFKNCEKYEENDYKVSDSTVTWIKPDRTEEGDLMKKFRAPCSRIEVGDISPPMIYWVPIEQSVATPDQLRLTHMPYFGDGIDDGNIYEHLIDMFPDGIHGFSDNWSYVNDWILYKLCRAALKDYQGSPDVFYYTLYRLWPNKSSQREFSSAFPVLCENFAEKGFDPSSLEPWKKTKIAEGAQNLRNPTCYACLAYTCAIHGFKAEIPIEFPNGEFYNAMLPLPNNPENDGKMCSGNCWKSVTMKEVSEVLVPDSEEILQKEVKIYFMKSRIAKMPIEDGALIVNIYVFNTYIPFCEFVKKYVDEDDEESKIRSCRDAYHLMMSMAENVSARRLKMGQPSNRLSIKDRVNNFRRNQLSQEKAKRKLRHDSLRIQALRDGLDAEKLIREDDMRDSQRNSEKVRMTAVTPITACRHAGPCNATAENCACRENGVCSYMCKCDINCSQRFPGCNCAAGQCYTKACQCYRANWECNPMTCNMCKCDAIDSNIIKCRNFGMTRMIQKRTYCGPSKIAGNGLFLLEPAEKDEFITEYTGERISDDEAERRGAIYDRYQCSYIFNIETGGAIDSYKIGNLARFANHDSKNPTCYARTMVVAGEHRIGFYAKRRLEISEELTFDYSYSGEHQIAFRMVQTKERSEKPSRPKSQKLSKPMTSE,not soluble
11,MGLKVLLYDPDGEIAHFLEDIFEVTGHTLYPAGSEEEVFEYLKNEPEFFFLPFSLKEAWVNSLKERATIPIFFLFSEEEEERAKGLGIPEVNLVRVPFNPLELFERLGLLHKMKPKDFQEIGLFNTLVKSHLEEKGVKVKIKGSGGECLVNTYPVSLSCRLEELKELLKKRLRTGRR,not soluble
12,MKKGVLIAFEGIDGSGKSSQATLLKDWIELKRDVYLTEWNSSDWIHDIIKEAKKKDLLTPLTFSLIHATDFSDRYERYILPMLKSGFIVISDRYIYTAYARDSVRGVDIDWVKKLYSFAIKPDITFYIRVSPDIALERIKKSKRKIKPQEAGADIFPGLSPEEGFLKYQGLITEVYDKLVKDENFIVIDGTKTPKEIQIQIRKFVGELIDNSF,soluble
13,MTVTLAGNPIEVGGHFPQVGEIVENFILVGNDLADVALNDFASKRKVLNIFPSIDTGVCATSVRKFNQQAAKLSNTIVLCISADLPFAQARFCGAEGIENAKTVSTFRNHALHSQLGVDIQTGPLAGLTSRAVIVLDEQNNVLHSQLVEEIKEEPNYEAALAVLA,soluble
14,AHHHHHHGSTHIFPEINSISSLLLLYNGRVLANIHDRTIKKVIGFEAIFRDRVIRNDIKMLIELIRKGDEPLEIRGITIEDYAMNLIKGMMKFARPEE,not soluble
15,MMRGSHHHHHTDPISYIIRKADSVNKALDSAVPLREPLKIHEAMRYSLLAGGKRVRPVLCIAACELVGGEESLAMPAACAVEMIHTMSLIHDDLPCMDNDDLRRGKPTNHKVYGEDVAVLAGDALLSFAFEHLASATSSEVSPARVVRAVGELAKAIGTEGLVAGQVVDISSEGLDLNNVGLEHLKFIHLHKTAALLEASAVLGGIIGGGSDEEIERLRKFARCIGLLFQVVDDILDVTKSSKLTYPKLMGLEKSREFAEKLNTEARDQLLGFDSDKVAPLLALANYIANRQN,soluble
16,MSLAPLVAMVGGGQLARMTHQAAIALGQNLRVLVTSADDPAAQVTPNVVIGSHTDLAALRRVAAGADVLTFDHEHVPNELLEKLVADGVNVAPSPQALVHAQDKLVMRQRLAAAGVAVPRYAGIKDPDEIDVFAARVDAPIVVKAVRGGYDGRGVRMARDVADARDFARECLADGVAVLVEERVDLRRELSALVARSPFGQGAAWPVVQTVQRDGTCVLVIAPAPALPDDLATAAQRLALQLADELGVVGVLAVELFETTDGALLVNELAMRPHNSGHWTIDGARTSQFEQHLRAVLDYPLGDSDAVVPVTVMANVLGAAQPPAMSVDERLHHLFARMPDARVHLYGKAERPGRKVGHINFLGSDVAQLCERAELAAHWLSHGRWTDGWDPHRASDDAVGVPPACGGRSDEEERREGHHHHHH,soluble
17,MAARKLIARINPTNSALFVCDLQEKFASNIKYFPEIITTSRRLIDAARILSIPTIVTEQYPKGLGHTVPTLKEGLAENTPIFDKTKFSMCIPPTEDTLKKVQNVILVGIEAHVCVLQTTYDLLERGLNVHVVVDAVSSRSHTDRHFAFKQMEQAGAILTTSEATILGLVGGSDHPKFKEVQKLILTSAPDTGLVPLSKL,soluble
18,MAHHHHHHSLSELVIESWRADDKALWEQKIIPAFEAANPGIKVKFNPVPNVNYTPTLWENLKAGKAGDLITCRPFDDSLALFKAGHLAEITEMAGMENFPSFAQAPWQTDSGAQTFCVPMASVIHGFFYNKKIFNELGLSVPQTREQFFTVLDKVKADGRYIPLSMSGSESWVASELGYQNIGPNYWKGEDGRLALINGQEHLDDSQYVKVFEELARWRAYLGEDGELRDYGTSNELFTSGKAALYVAGSWEIAPFTDKVDFGVMRPPVAKQGDGCFFTDHTDIGMGMNPASKNPQAAMAFLQWLTTPEFAELYTNSLPGFFSLSNHFFDVTNPAAREMMEWRDQCDSTIRVATQILSRGQPKLGDELAEVSQAVLVGKMTPTAAAERLEQGLKRWYAPHQTRKAKEQECQCVEPISPTTRLNTLPVVDIAPVVASDPVPPTEATILSEEG,not soluble
19,MDDVYRAFDSVGNILNFRIVEKEQKGFWVSTKIKTVVFDSADMSSDDLFLKCLQSSYKAYFETEPAGLDKRQLMKTLIQKCGFSC,not soluble
20,MAFAGLTDLRLFDNVSHYINELAGEFSPDTAHLHDHNCKCSIVDRLWCDYFGMGTCISREARARRKERKRNIKRLREARNASASPRDPFSNGHRYGHRSRSEGGNGDVRDDIKELIIETLEVIRTLVNNEQEPPQSLLKLNFIADEEKGWTMVVRALIYTIPENDPLGPAVISLFLDECPLPSRESVQTLLLSLGLSSEFVDSKHLPPSWHKNMCIVLGSLAEKMAGSAAVTMFNDKIKGYLMKIICYGLTYFPPNYGKTLKEKNTHCVRMFALLALEKFAQTRENQISICKMFTEMTTHPLIKMEEYLKNEEVSRYWFAKQEGFCAQWALDNIFILESRPYSYETCETSKINAMLNHEDVSEYLKIGPDGLEARCDVSSFESVRCTFEVMDGVWYYEATVLTSGVMQIGLATKRSRFLNHEGYGIGDDASSVAYDGCRQLVWYNAKSHKHEHENWQPGDVIGVLLNIPEGEVVFYLNGTPLKEPETEFLSNRQPSEGVFAAASFMSFQQCRFNFGASRFKYNPGKKFRCFNDFGKLSTEQRTIVPRRLRLELLEKEHIPEDYCTICFAAPGSTTLLPCNHDGFCSDCCNMMDHCPLCRKPIEERIQKTKNNRSFDNVKSPSNSSISAFVRVNSQRKSTRATSAVATHPTDTVIHTGITTANNRDIARRHTQV,not soluble
